± gives the standard deviation of the averaged measurements.
The sequences below were run on VchCAST RNA-guided transposition machinery (E. coli BL21(DE3) host, lacZ target) (assay: relative integration efficiency (T-RL orientation) vs wild-type transposon end (log2 (normalized fold change)); transposon end mutated: right end (5 bp flank + 75 bp right end); higher = more efficient transposition).
Summary of the method: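 Relative integration efficiency is a fold change of output over input barcode abundance, normalised to reference barcodes and log-transformed. Input plasmids and genomic integration junctions were PCR-amplified and Illumina-sequenced from E. coli BL21(DE3) co-transformed with a T7-driven effector plasmid and pUC57 donor pools of 1549 left-end or 1849 right-end transposon variants. Plating was done with 0.1 mM IPTG at 37°C for 18 h, with two biological output replicates and four reference barcodes.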
With “ACATTTGTTGATACAACCATAAAATGATAATTCAACCCATAAATTGATAATTATCACACCCATAAATTGATATTGCCTCTGATCATAGTCAGACCAACATTGCTACGACCCGTATTCGCACCGACAC” the “relative integration efficiency (log2)” value was 0.0959 ± 0.067.
With “ACATTTGTTGATACAACCATTAAATGTTAATTCCACCCATAAATTGATAATTATCACACCCAATTTAACTATAACGCTCTGATCATAGTCAGACCAACATTGCTACGACCCGTATTCGCACCGACAC” the “relative integration efficiency (log2)” value was -1.56 ± 0.23.
With “ACATTGTTTGATACAACCATAAAATGATAATTACACCCATAAATTGATAATTATCACACCCATAAATTGATATTGCCTCTGATCATAGTCAGACCAACATTGCTACGACCCGTATTCGCACCGACAC” the “relative integration efficiency (log2)” value was -6.33 ± 0.24.
“ACATTTGTCGATCCAACCATAAAATGATAATTACACCCATAAATGGATAATTATCACACCCAATTTAACTATAACGCTCTGATCATAGTCAGACCAACATTGCTACGACCCGTATTCGCACCGACAC” was tested, and the “relative integration efficiency (log2)” value was -1.4 ± 0.23.
With “ACATTTGTTGATACAACCATATATTGATATCTCCAACCATAAGTTGATATTTTTCAGTGGGTATTTAACTATAACGCTCTGATCATAGTCAGACCAACATTGCTACGACCCGTATTCGCACCGACAC” the “relative integration efficiency (log2)” value was -0.859 ± 0.26.
In the case of “ACATTTGTTGATACAACCATAAAATGATAATTACACCCATAAATTGATAATTAAGACACCCATAAATTGATATTGCCTCTGATCATAGTCAGACCAACATTGCTACGACCCGTATTCGCACCGACAC”, the “relative integration efficiency (log2)” value is reported as -0.306 ± 0.23.
For “TGTAATGTTGATACAACCATAAAATGATAATTACACCCATAAATTGATAATTATCACACCCATAAATTGATATTGCCTCTGATCATAGTCAGACCAACATTGCTACGACCCGTATTCGCACCGACAC”, the “relative integration efficiency (log2)” value was -0.138 ± 0.063.
For “ACATTTGTTGATACAACCATAAAATGATAATTACACCCATAAATTGATAATTATCTGACCCATAAATTGATATTGCCTCTGATCATAGTCAGACCAACATTGCTACGACCCGTATTCGCACCGACAC”, the “relative integration efficiency (log2)” value was -0.393 ± 0.12.
For “ACATTTGTGGATACAACCATAAAATGATAATTACACCCATAAATGGATTATTATCACACCCAATTTAACTATAACGCTCTGATCATAGTCAGACCAACATTGCTACGACCCGTATTCGCACCGACAC”, the “relative integration efficiency (log2)” value was -1.72 ± 0.3.
With “ACATTTGTTGATACAACCATAAAATGATAATTACACCCATAAATTGATAATTATCACACAACGCCCGGTCGCGGTAAGAGGATCATAGTCAGACCAACATTGCTACGACCCGTATTCGCACCGACAC” the “relative integration efficiency (log2)” value was -0.696 ± 0.091.
“ACATTTGTTGATACAACCATAAAAGGATCATTACACCCATCAATTGATAATTATCCCACCCCATTTAACTATAACGCTCTGATCATAGTCAGACCAACATTGCTACGACCCGTATTCGCACCGACAC” was tested, and the “relative integration efficiency (log2)” value was -3.29 ± 0.28.
For “ACATTTGTTGATACAACCATATATTGATATCTCCACCCATAAATTGATATTGCTCACACCCATAAATTGATATTGCCTCTGATCATAGTCAGACCAACATTGCTACGACCCGTATTCGCACCGACAC”, the “relative integration efficiency (log2)” value was -0.524 ± 0.027.
With “ACATTTGTTGATACAACCATAAAATGATAATTAATAATTATTTATAATCAGCAACTTAACCACAACACCCATAAATTGATAATTATCAACAAACGCCCGGTCGCGGTACTCTGATCATAGTCAGACC” the “relative integration efficiency (log2)” value was -3.33 ± 0.27.
With “ACATTTGTTGATACACCCATAAAATGATAATTACAACCATAAATTGATAATTATCACAACCATAAATTGATATTGCCTCTGATCATAGTCAGACCAACATTGCTACGACCCGTATTCGCACCGACAC” the “relative integration efficiency (log2)” value was -0.707 ± 0.2.
“ACATTTCTCGATACAACCATAAAATGATAATTACACCCATAAATTCATCATTATCACACCCAATTTAACTATAACGCTCTGATCATAGTCAGACCAACATTGCTACGACCCGTATTCGCACCGACAC” was tested, and the “relative integration efficiency (log2)” value was -3.05 ± 0.46.
“ACATTTGTTGATACAACCAATAAATGATAATTACACCCATAAATTGATAATTATCACACCCATAAATTGATATTGCCTCTGATCATAGTCAGACCAACATTGCTACGACCCGTATTCGCACCGACAC” was tested, and the “relative integration efficiency (log2)” value was -0.395 ± 0.089.
In the case of “ACATTTGTTGATACACCCATAAATTGATAATTACACCCATAAATTGATATTGCTCACACCCATAAATTGATATTGCCTCTGATCATAGTCAGACCAACATTGCTACGACCCGTATTCGCACCGACAC”, the “relative integration efficiency (log2)” value is reported as -0.538 ± 0.15.
For “ACATTTGTTGATACAACCATAAAATGATAATTACTCTGATCATAGTCAGACCAACATTGCTACGACCCGTATTCACCCATAAATTGATAATTATCAGTGGGTATTTAACTATAACGCGCACCGACAC”, the “relative integration efficiency (log2)” value was -2.15 ± 0.4.
For “ACATTTGTTGATACAACCATAAAATGATAATTCACCCCTAAATTGATAATTATCACACCCACATTTAACTATAACGCTCTGATCATAGTCAGACCAACATTGCTACGACCCGTATTCGCACCGACAC”, the “relative integration efficiency (log2)” value was -3.72 ± 0.048.
For “ACATTTGTTGATACAACCATAAAATGCGCCGGCCACCCATAAATTGCGCCGGCTCACACCCATAAATTGCGCGGTACTCTGATCATAGTCAGACCAACATTGCTACGACCCGTATTCGCACCGACAC”, the “relative integration efficiency (log2)” value was -5.16 ± 0.24.
For “ACATTTGTTGATACAACCATAAAATGATAATTACTCTGATCATAGTCAGACCACACCCATAAATTGATAATTATCAGTGGGTATTTAACTATAACGACATTGCTACGACCCGTATTCGCACCGACAC”, the “relative integration efficiency (log2)” value was -0.22 ± 0.33.
“ACATTTGTTGATACAACCATAAAATGATAATTACACAACGCCCGGTCGCCGGCGACACAAACGCCCGGTCGCGGTAAGAGGATCATAGTCAGACCAACATTGCTACGACCCGTATTCGCACCGACAC” was tested, and the “relative integration efficiency (log2)” value was -2.42 ± 0.23.
In the case of “ACATTTGTTGATACAACCATACAATGATAATTACACCCATACATTGATAATTATCACACCCATACATTGATATTGCCTCTGATCATAGTCAGACCAACATTGCTACGACCCGTATTCGCACCGACAC”, the “relative integration efficiency (log2)” value is reported as -2.95 ± 0.34.
In the case of “ACATTTGTTCATACAACCATAAAATGATAATTACACCCATAAATTCATCATTATCACCCCCAATTTAACTATAACGCTCTGATCATAGTCAGACCAACATTGCTACGACCCGTATTCGCACCGACAC”, the “relative integration efficiency (log2)” value is reported as -1.97 ± 0.36.
With “ACATTTGTTGATACAACCATATATTGATATCTCCAACCATATATTGATATCTCTCACAACCATAAAGTGATATTTACTCTGATCATAGTCAGACCAACATTGCTACGACCCGTATTCGCACCGACAC” the “relative integration efficiency (log2)” value was -0.452 ± 0.1.
“ACATTTGTTGATACAACCATAAAATGATAATTACACCCATAAATTGATAATAATGACACCGAATTTAACTATAACGCTCTGATCATAGTCAGACCAACATTGCTACGACCCGTATTCGCACCGACAC” was tested, and the “relative integration efficiency (log2)” value was 1.54 ± 0.64.
In the case of “ACATTTGTTGATACAACCATAAAATGATAATTACACCCATAAATTGATAATTATCACACCCATAAATTTCGCGGTAAGAGGATCATAGTCAGACCAACATTGCTACGACCCGTATTCGCACCGACAC”, the “relative integration efficiency (log2)” value is reported as -0.719 ± 0.14.
For “ACATTTGTTGTAACAACCATAAAATGATAATTACACCCATAAATTGATAATTATCACACCCATAAATTGATATTGCCTCTGATCATAGTCAGACCAACATTGCTACGACCCGTATTCGCACCGACAC”, the “relative integration efficiency (log2)” value was -0.2 ± 0.038.
With “ACATTTGTTGATACAACCATTAAATGATAATTCCACCCAAATATTGATAATTATCACACCCAATTTAACTATAACGCTCTGATCATAGTCAGACCAACATTGCTACGACCCGTATTCGCACCGACAC” the “relative integration efficiency (log2)” value was -1.51 ± 0.05.
“ACTATTGTTGATACAACCATAAAATGATAATTACACCCATAAATTGATAATTATCACACCCATAAATTGATATTGCCTCTGATCATAGTCAGACCAACATTGCTACGACCCGTATTCGCACCGACAC” was tested, and the “relative integration efficiency (log2)” value was 0.151 ± 0.07.
For “ACATTTGTTGATACAACCATAAAATGATAATTACACCCATAAATTGATAATTATCACACCCATAAATTGATATTGCGAGAGATCATAGTCAGACCAACATTGCTACGACCCGTATTCGCACCGACAC”, the “relative integration efficiency (log2)” value was -0.286 ± 0.11.
“ACATTTGTTGATCCAACCATAAAATGATAATTACACCCATAAATTCATCATTATCACACCCAATTTAACTATAACGCTCTGATCATAGTCAGACCAACATTGCTACGACCCGTATTCGCACCGACAC” was tested, and the “relative integration efficiency (log2)” value was -2.42 ± 0.5.
